Paper PMC10144504 (Cell, 2023)

What was measured:
[1] = molecular target: mC-GCGR-345C-NBD (minimal cysteine GCGR labelled with NBD at the cytoplasmic end of TM6) (human) (UniProt P47871); assay: other fluorescence titration
[2] = molecular target: mC-GCGR-31C-NBD (minimal cysteine GCGR labelled with NBD on the N-terminal helix of the ECD) (human) (UniProt P47871); assay: other fluorescence titration
[3] = molecular target: Nanoluc-GCGR fusion protein (human) (UniProt P47871); assay: FRET or BRET
[4] = molecular target: Human glucagon receptor (Q27-F477) (human, UniProt P47871 27-477); assay: pull-down
Chain of Human glucagon receptor (Q27-F477) (P47871 27-477): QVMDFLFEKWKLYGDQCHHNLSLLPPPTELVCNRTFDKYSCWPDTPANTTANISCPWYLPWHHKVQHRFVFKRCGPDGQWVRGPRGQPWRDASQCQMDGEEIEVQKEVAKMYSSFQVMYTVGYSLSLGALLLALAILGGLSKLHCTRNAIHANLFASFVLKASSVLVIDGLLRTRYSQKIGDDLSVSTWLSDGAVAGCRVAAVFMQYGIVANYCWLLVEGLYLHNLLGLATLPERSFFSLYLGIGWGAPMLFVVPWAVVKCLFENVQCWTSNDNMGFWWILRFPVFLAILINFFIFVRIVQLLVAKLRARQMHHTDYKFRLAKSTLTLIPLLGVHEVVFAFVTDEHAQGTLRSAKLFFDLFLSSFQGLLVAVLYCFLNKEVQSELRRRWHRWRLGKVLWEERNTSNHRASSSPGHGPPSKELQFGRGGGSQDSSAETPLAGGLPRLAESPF

Chain of Nanoluc-GCGR fusion protein (human) (P47871 26-477): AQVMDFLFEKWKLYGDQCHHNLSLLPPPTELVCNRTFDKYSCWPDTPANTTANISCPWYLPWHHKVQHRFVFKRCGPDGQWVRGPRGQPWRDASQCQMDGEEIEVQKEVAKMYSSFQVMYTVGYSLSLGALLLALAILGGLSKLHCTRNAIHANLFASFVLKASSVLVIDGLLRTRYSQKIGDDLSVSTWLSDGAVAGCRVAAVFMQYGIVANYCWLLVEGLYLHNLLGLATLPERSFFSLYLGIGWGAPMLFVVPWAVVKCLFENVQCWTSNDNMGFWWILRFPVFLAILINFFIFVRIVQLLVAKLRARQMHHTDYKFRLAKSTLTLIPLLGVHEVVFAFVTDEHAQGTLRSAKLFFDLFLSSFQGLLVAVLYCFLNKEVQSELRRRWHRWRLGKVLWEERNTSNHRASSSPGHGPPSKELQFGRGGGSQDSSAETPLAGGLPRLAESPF

human RAMP2 (residues 43-175) (from UniProt O60895 43-175) (natural protein)
EC50 [1]: 225 nM
EC50 [2]: 131 nM

Dasi-E21S-A17K(TAMRA) (peptide)
fold decrease in affinity with co-expressed RAMP2 against without RAMP2 [3]: 2.9 fold

B1: human RAMP2 (residues 43-175) (natural protein, UniProt O60895 43-175, looked up)
chain: QPLPTTGTPGSEGGTVKNYETAVQFCWNHYKDQMDPIEKDWCDWAMISRPYSTLRDCLEHFAELFDLGFPNPLAERIIFETHQIHFANCSLVQPTFSDPPEDVLLAMIIAPICLIPFLITLVVWRSKDSEAQA
binding result [4]: binds
